Where a chain is given by its changes, count along the chain named. Names and notes keep the numbering of the source. Values joined by “and” are separate entries in the source; they are usually repeats but may differ in a detail not shown here. Equal entries are not always repeated.
Test system: human pan T cells
Assay: Anti-CD3 coimmobilization assay, IFN-gamma
Assay type: cell-based
Settings: Table E34; culture supernatant, 3 days
Experimental: Costimulatory bioactivity of CD80 fusion variants was determined in anti-CD3 coimmobilization assays. 1 nM or 4 nM mouse anti-human CD3 (OKT3, Biolegends, USA) was diluted in PBS with 1 nM to 80 nM rCD80.Fc variant proteins. This mixture was added to tissue culture treated flat bottom 96-well plates (Corning, USA) overnight to facilitate adherence of the stimulatory proteins to the wells of the plate. The next day, unbound protein was washed off the plates and 100,000 purified human pan T cells (BenTech Bio, US) or human T cell clone BC3 (Astarte Biologics, USA) were added to each well in a final volume of 200 μl of Ex-Vivo 15 media (Lonza, Switzerland). Cells were cultured 3 days before harvesting culture supernatants and measuring human IFN-gamma levels with Duoset ELISA kit (R&D Systems, USA) as described above.

B1: R29D, Y31L, Q33H, K36G, M38I, T41A, M43R, M47T, L70Q, E81V, L85R, K89N, A91T, F92P, K93I, R94L, L97R, T130A, L148S (protein)
chain: VIHVTKEVKEVATLSCGHNVSVEELAQTDILWHKEGKIVLAMRSGDTNIWPEYKNRTIFDITNNLSIVIQALRPSDEGTYVCVVRKYENDTPILEHRAEVTLSVKADFPTPSISDFEIPTSNIRRIICSASGGFPEPHLSWLENGEESNAINTTVSQDPETELYAVSSKLDFNMTTNHSFMCLIKYGHLRVNQTFNWNTTKQEHFPDN
  Anti-CD3 IFN-gamma Coimmobilization Assay: 101 pg/mL

B2: R29D, Y31L, Q33H, K36G, M38I, T41A, M43R, M47T, I61N, E81V, L85R, K89N, A91T, F92P, K93V, R94F, V104A, I118V, T120S, I126V, T130A (protein)
chain: B1 chain with I61N, Q70L, I93V, L94F, R97L, V104A, I118V, T120S, I126V, S148L
  Anti-CD3 IFN-gamma Coimmobilization Assay: 288 pg/mL

B3: R29D, Y31L, Q33H, K36G, M38I, T41A, M43R, M47T, E81V, L85R, K89N, A91T, F92P, K93V, R94F, I118V, T120S, T130A (protein)
chain: B1 chain with Q70L, I93V, L94F, R97L, I118V, T120S, S148L
  Anti-CD3 IFN-gamma Coimmobilization Assay: 111 pg/mL

B4: R29D, Y31L, Q33H, K36G, M38I, T41A, M43R, M47T, T62S, E81V, L85R, K89N, A91T, F92P, K93V, R94L, I118V, T120S, T130A, K169E, T175A (protein)
chain: B1 chain with T62S, Q70L, I93V, R97L, I118V, T120S, S148L, K169E, T175A
  Anti-CD3 IFN-gamma Coimmobilization Assay: 114 pg/mL

B5: H18L, R29D, Y31L, Q33H, K36G, M38I, T41A, M43R, M47T, E81V, L85R, K89N, A91T, F92P, K93V, R94L, F116S, T130A, H188D (protein)
chain: B1 chain with H18L, Q70L, I93V, R97L, F116S, S148L, H188D
  Anti-CD3 IFN-gamma Coimmobilization Assay: 114 pg/mL

B6: H18L, R29D, Y31L, Q33H, K36G, M38I, T41A, M43R, M47T, E81V, L85R, K89N, A91T, F92P, K93V, R94L, I118V, T120S, I127T, T130A, L142S, H188D (protein)
chain: B1 chain with H18L, Q70L, I93V, R97L, I118V, T120S, I127T, L142S, S148L, H188D
  Anti-CD3 IFN-gamma Coimmobilization Assay: 143 pg/mL

B7: C16S, H18L, R29D, Y31L, Q33H, K36G, M38I, T41A, M43R, M47T, E81V, L85R, K89N, A91T, F92P, K93V, R94L, T110A, I118V, H188D (protein)
chain: B1 chain with C16S, H18L, Q70L, I93V, R97L, T110A, I118V, A130T, S148L, H188D
  Anti-CD3 IFN-gamma Coimmobilization Assay: 247 pg/mL

B8: R29D, Y31L, Q33H, K36G, M38I, T41A, M43R, M47T, A91G, I118V, T120S, I127T, T130A, H188D (protein)
chain: VIHVTKEVKEVATLSCGHNVSVEELAQTDILWHKEGKIVLAMRSGDTNIWPEYKNRTIFDITNNLSIVILALRPSDEGTYECVVLKYEKDGFKREHLAEVTLSVKADFPTPSISDFEVPSSNIRRITCSASGGFPEPHLSWLENGEELNAINTTVSQDPETELYAVSSKLDFNMTTNHSFMCLIKYGDLRVNQTFNWNTTKQEHFPDN
  Anti-CD3 IFN-gamma Coimmobilization Assay: 125 pg/mL

B9: R29D, Y31L, Q33H, K36G, M38I, T41A, M43R, M47T, L70Q, E81V, L85R, K89N, A91T, F92P, K93V, R94L, I118V, T120S, I127T, T130A (protein)
chain: B1 chain with I93V, R97L, I118V, T120S, I127T, S148L
  Anti-CD3 IFN-gamma Coimmobilization Assay: 162 pg/mL and 135 pg/mL

B10: R29D, Y31L, Q33H, K36G, M38I, T41A, M43R, M47T, L70Q, D76G, A91G, S103L, I118V, T120S, I127T, T130A (protein)
chain: B8 chain with L70Q, D76G, S103L, D188H
  Anti-CD3 IFN-gamma Coimmobilization Assay: 224 pg/mL

B11: Y53C, L85R, K89N, A91T, F92P, K93V, R94L, I118V, T120S, I127T, T130A, K169E (protein)
chain: VIHVTKEVKEVATLSCGHNVSVEELAQTRIYWQKEKKMVLTMMSGDMNIWPECKNRTIFDITNNLSIVILALRPSDEGTYECVVRKYENDTPVLEHLAEVTLSVKADFPTPSISDFEVPSSNIRRITCSASGGFPEPHLSWLENGEELNAINTTVSQDPETELYAVSSELDFNMTTNHSFMCLIKYGHLRVNQTFNWNTTKQEHFPDN
  Anti-CD3 IFN-gamma Coimmobilization Assay: 75 pg/mL

B12: T62S, E81V, L85R, K89N, A91T, F92P, K93V, R94L, I118V, T120S, T130A, K169E (protein)
chain: B11 chain with C53Y, T62S, E81V, T127I
  Anti-CD3 IFN-gamma Coimmobilization Assay: 107 pg/mL

B13: L70Q, A91G, I118V, T120S, T130A, K169E (protein)
chain: B11 chain with C53Y, L70Q, R85L, N89K, T91G, P92F, V93K, L94R, T127I
modifications: CD80 v125 ECD
  Anti-CD3 IFN-gamma Coimmobilization Assay: 115 pg/mL

B14: R29D, Y31L, Q33H, K36G, M38I, T41A, M43R, M47T, E81V, L85R, K89N, A91T, F92P, K93V, R94L, S129L, H188D (protein)
chain: B1 chain with Q70L, I93V, R97L, S129L, A130T, S148L, H188D
  Anti-CD3 IFN-gamma Coimmobilization Assay: 87 pg/mL

B15: Y53C/L70Q/D90G/T130A/N149D/N152T/H188D (protein)
chain: VIHVTKEVKEVATLSCGHNVSVEELAQTRIYWQKEKKMVLTMMSGDMNIWPECKNRTIFDITNNLSIVIQALRPSDEGTYECVVLKYEKGAFKREHLAEVTLSVKADFPTPSISDFEIPTSNIRRIICSASGGFPEPHLSWLENGEELDAITTTVSQDPETELYAVSSKLDFNMTTNHSFMCLIKYGDLRVNQTFNWNTTKQEHFPDN
  Anti-CD3 IFN-gamma Coimmobilization Assay: 122 pg/mL

B16: H18L, R29D, Y31L, Q33H, K36G, M38I, T41A, M43R, M47T, E81V, L85R, K89N, A91T, F92P, K93V, R94L, I118V, T120S, I127T, T130A, H188D (protein)
chain: B8 chain with H18L, E81V, L85R, K89N, G91T, F92P, K93V, R94L
  Anti-CD3 IFN-gamma Coimmobilization Assay: 108 pg/mL

B17: K89E, K93E, T130A (protein)
chain: B15 chain with C53Y, Q70L, K89E, G90D, K93E, D149N, T152N, D188H
modifications: CD80 v91 ECD
  Anti-CD3 IFN-gamma Coimmobilization Assay: 571 pg/mL

B18: S21P, R29D, Y31L, Q33H, K36G, M38I, T41A, M43R, M47T, N48I, V68A, E81V, L85R, K89N, A91T, F92P, K93V, R94L,P109H, I126L, K169I (protein)
chain: VIHVTKEVKEVATLSCGHNVPVEELAQTDILWHKEGKIVLAMRSGDTIIWPEYKNRTIFDITNNLSIAILALRPSDEGTYVCVVRKYENDTPVLEHLAEVTLSVKADFHTPSISDFEIPTSNIRRLICSTSGGFPEPHLSWLENGEELNAINTTVSQDPETELYAVSSILDFNMTTNHSFMCLIKYGHLRVNQTFNWNTTKQEHFPDN
  Anti-CD3 IFN-gamma Coimmobilization Assay: 137 pg/mL

B19: H18L, R29D, Y31L, Q33H, K36G, M38I, T41A, M43R, M47T, P74L, Y80N, E81V, L85R, K89N, A91T, F92P, K93V, R94L, L97R (protein)
chain: B1 chain with H18L, Q70L, P74L, Y80N, I93V, A130T, S148L
  Anti-CD3 IFN-gamma Coimmobilization Assay: 18 pg/mL

B20: R29D, Y31L, Q33H, K36G, M38I, T41A, M43R, M47T, E81V, L85R, K89N, A91T, F92P, K93V, R94L, S21P, P74L, Y80N, D90N, T130A, N149S, E162G (protein)
chain: B1 chain with S21P, Q70L, P74L, Y80N, D90N, I93V, R97L, S148L, N149S, E162G
  Anti-CD3 IFN-gamma Coimmobilization Assay: 54 pg/mL

B21: R29D, Y31L, Q33H, K36G, M38I, T41A, M43R, M47T, E81V, L85R, K89N, A91T, F92P, K93V, R94L, H18L, V68M, T130A (protein)
chain: B1 chain with H18L, V68M, Q70L, I93V, R97L, S148L
  Anti-CD3 IFN-gamma Coimmobilization Assay: 51 pg/mL

B22: R29D, Y31L, Q33H, K36G, M38I, T41A, M43R, M47T, E81V, L85R, K89N, A91T, F92P, K93V, R94L, H18L, P74L, Y80N, T130A, R190S (protein)
chain: B1 chain with H18L, Q70L, P74L, Y80N, I93V, R97L, S148L, R190S
  Anti-CD3 IFN-gamma Coimmobilization Assay: 8 pg/mL

— US20220177587A1, “METHODS AND USES OF VARIANT CD80 FUSION PROTEINS AND RELATED CONSTRUCTS” (Alpine Immune Sciences, Inc., priority 2018, published 2022)
